For one assay, the target named is T1, human CD38-Fc (human, UniProt P28907 43-300, limits assumed).
T1 construct: not shown: Fc part
As to the kind of experiment: SPR (Biacore 3000), CD38-Fc immobilized, 1:1 fit, apparent. On the technique in general: Surface plasmon resonance follows binding to a sensor surface in real time, without labels.

The next assay has as its target T2, human CD38 on cells (human, UniProt P28907 1-300).
T2 construct: whole, on cells; The species is stated for the CHO-K1 transfectants; also called CHO-K1 cells recombinantly expressing human CD38; CD38 expressing RPMI8226 cell
Description: FACS titration on CD38 expressing RPMI8226 cells.

B1: MOR03080 IgG1 (antibody, V domains shown)
VH: QVQLVESGGGLVQPGGSLRLSCAASGFTFSSYGMHWVRQAPGKGLEWVSNIYSDGSNTFYADSVKGRFTISRDNSKNTLYLQMNSLRAEDTAVYYCARNMYRWPFHYFFDYWGQGTLVTVSS
VL: DIELTQPPSVSVAPGQTARISCSGDNIGNKYVSWYQQKPGQAPVVVIYGDNNRPSGIPERFSGSNSGNTATLTISGTQAEDEADYYCSSYDSSYFVFGGGTKLTVLG
The EC50 is the concentration needed to bring the measured effect to its halfway point. In the case of B1, the Kd with human CD38-Fc is 3 nM. Also, a half-maximal effect with human CD38 on cells (EC50) was put at 0.4 nM.

These data come from patent US20100291078A1 (published 2010).
